Experimental data from patent US20140087995A1 (published 2014).
Numbered stars: 1 amine (or outer) side, 2 acyl side, 3 side chain; on linkers, the order of the positions; unused ones are H or OH. Bridge positions count the residues as written; N and C are the ends. Side chains are listed from the residue outwards. Ends that are not written are not given here. * marks the point of attachment. C20 diacid = O=C(O)CCCCCCCCCCCCCCCCCCC(=O)*; γGlu = O=C(O)[C@H](CCC(=O)[*:2])N[*:1]

T1: human calcitonin receptor (human, UniProt P30988 25-474)
T1 construct: whole, on cells; Membranes of BHK cells stably transfected with the human calcitonin receptor (Assay VII); also called hCTR; hCT
T1 sequence (looked up): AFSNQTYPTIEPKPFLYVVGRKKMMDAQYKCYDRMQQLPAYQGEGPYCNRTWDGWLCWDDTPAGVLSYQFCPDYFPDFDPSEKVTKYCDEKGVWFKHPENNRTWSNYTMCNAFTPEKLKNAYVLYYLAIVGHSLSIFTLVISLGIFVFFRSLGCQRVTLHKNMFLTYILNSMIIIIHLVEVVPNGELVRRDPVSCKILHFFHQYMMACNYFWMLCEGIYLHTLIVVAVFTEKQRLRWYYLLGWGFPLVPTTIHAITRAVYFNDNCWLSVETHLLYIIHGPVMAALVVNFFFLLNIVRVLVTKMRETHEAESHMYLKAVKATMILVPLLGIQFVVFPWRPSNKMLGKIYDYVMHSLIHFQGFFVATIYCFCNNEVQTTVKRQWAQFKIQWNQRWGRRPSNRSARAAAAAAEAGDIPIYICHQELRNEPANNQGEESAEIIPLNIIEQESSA

B1: N^ε1-[(4S)-4-carboxy-4-[[(4S)-4-carboxy-4-(19-carboxynonadecanoylamino)butanoyl]amino]butanoyl]-[Glu14,Arg17,Pro21,Pro27,Pro34,Arg35]-h-amylin (peptide)
peptide: K([γGlu-γGlu-C20 diacid])CNTATCATQRLAEFLRHSSPNFGAIPSSTNVGPRTY-NH2
modifications: disulfide 2-7; N-terminus assumed
SMILES: CC[C@H](C)[C@H](NC(=O)[C@H](C)NC(=O)CNC(=O)[C@H](Cc1ccccc1)NC(=O)[C@H](CC(N)=O)NC(=O)[C@@H]1CCCN1C(=O)[C@H](CO)NC(=O)[C@H](CO)NC(=O)[C@H](Cc1c[nH]cn1)NC(=O)[C@H](CCCNC(=N)N)NC(=O)[C@H](CC(C)C)NC(=O)[C@H](Cc1ccccc1)NC(=O)[C@H](CCC(=O)O)NC(=O)[C@H](C)NC(=O)[C@H](CC(C)C)NC(=O)[C@H](CCCNC(=N)N)NC(=O)[C@H](CCC(N)=O)NC(=O)[C@@H](NC(=O)[C@H](C)NC(=O)[C@@H]1CSSC[C@H](NC(=O)[C@@H](N)CCCCNC(=O)CC[C@H](NC(=O)CC[C@H](NC(=O)CCCCCCCCCCCCCCCCCCC(=O)O)C(=O)O)C(=O)O)C(=O)N[C@@H](CC(N)=O)C(=O)N[C@@H]([C@@H](C)O)C(=O)N[C@@H](C)C(=O)N[C@@H]([C@@H](C)O)C(=O)N1)[C@@H](C)O)C(=O)N1CCC[C@H]1C(=O)N[C@@H](CO)C(=O)N[C@@H](CO)C(=O)N[C@H](C(=O)N[C@@H](CC(N)=O)C(=O)N[C@H](C(=O)NCC(=O)N1CCC[C@H]1C(=O)N[C@@H](CCCNC(=N)N)C(=O)N[C@H](C(=O)N[C@@H](Cc1ccc(O)cc1)C(N)=O)[C@@H](C)O)C(C)C)[C@@H](C)O
notes: also called compound 110
B2: N^ε1-[(4S)-4-carboxy-4-[[(4S)-4-carboxy-4-(19-carboxynonadecanoylamino)butanoyl]amino]butanoyl]-[Glu14,Arg17,Pro21,Pro27,Pro34,Glu35,Pro37]-h-amylin (peptide)
peptide: K([γGlu-γGlu-C20 diacid])CNTATCATQRLAEFLRHSSPNFGAIPSSTNVGPETP-NH2
modifications: disulfide 2-7; N-terminus assumed
SMILES: CC[C@H](C)[C@H](NC(=O)[C@H](C)NC(=O)CNC(=O)[C@H](Cc1ccccc1)NC(=O)[C@H](CC(N)=O)NC(=O)[C@@H]1CCCN1C(=O)[C@H](CO)NC(=O)[C@H](CO)NC(=O)[C@H](Cc1c[nH]cn1)NC(=O)[C@H](CCCNC(=N)N)NC(=O)[C@H](CC(C)C)NC(=O)[C@H](Cc1ccccc1)NC(=O)[C@H](CCC(=O)O)NC(=O)[C@H](C)NC(=O)[C@H](CC(C)C)NC(=O)[C@H](CCCNC(=N)N)NC(=O)[C@H](CCC(N)=O)NC(=O)[C@@H](NC(=O)[C@H](C)NC(=O)[C@@H]1CSSC[C@H](NC(=O)[C@@H](N)CCCCNC(=O)CC[C@H](NC(=O)CC[C@H](NC(=O)CCCCCCCCCCCCCCCCCCC(=O)O)C(=O)O)C(=O)O)C(=O)N[C@@H](CC(N)=O)C(=O)N[C@@H]([C@@H](C)O)C(=O)N[C@@H](C)C(=O)N[C@@H]([C@@H](C)O)C(=O)N1)[C@@H](C)O)C(=O)N1CCC[C@H]1C(=O)N[C@@H](CO)C(=O)N[C@@H](CO)C(=O)N[C@H](C(=O)N[C@@H](CC(N)=O)C(=O)N[C@H](C(=O)NCC(=O)N1CCC[C@H]1C(=O)N[C@@H](CCC(=O)O)C(=O)N[C@H](C(=O)N1CCC[C@H]1C(N)=O)[C@@H](C)O)C(C)C)[C@@H](C)O
B3: N^ε1-[(4S)-4-carboxy-4-[[(4S)-4-carboxy-4-(19-carboxynonadecanoylamino)butanoyl]amino]butanoyl]-[Glu14,Arg17,Pro21,Pro27,Arg34,Glu35]-h-amylin (peptide)
peptide: K([γGlu-γGlu-C20 diacid])CNTATCATQRLAEFLRHSSPNFGAIPSSTNVGRETY-NH2
modifications: disulfide 2-7; N-terminus assumed
SMILES: CC[C@H](C)[C@H](NC(=O)[C@H](C)NC(=O)CNC(=O)[C@H](Cc1ccccc1)NC(=O)[C@H](CC(N)=O)NC(=O)[C@@H]1CCCN1C(=O)[C@H](CO)NC(=O)[C@H](CO)NC(=O)[C@H](Cc1c[nH]cn1)NC(=O)[C@H](CCCNC(=N)N)NC(=O)[C@H](CC(C)C)NC(=O)[C@H](Cc1ccccc1)NC(=O)[C@H](CCC(=O)O)NC(=O)[C@H](C)NC(=O)[C@H](CC(C)C)NC(=O)[C@H](CCCNC(=N)N)NC(=O)[C@H](CCC(N)=O)NC(=O)[C@@H](NC(=O)[C@H](C)NC(=O)[C@@H]1CSSC[C@H](NC(=O)[C@@H](N)CCCCNC(=O)CC[C@H](NC(=O)CC[C@H](NC(=O)CCCCCCCCCCCCCCCCCCC(=O)O)C(=O)O)C(=O)O)C(=O)N[C@@H](CC(N)=O)C(=O)N[C@@H]([C@@H](C)O)C(=O)N[C@@H](C)C(=O)N[C@@H]([C@@H](C)O)C(=O)N1)[C@@H](C)O)C(=O)N1CCC[C@H]1C(=O)N[C@@H](CO)C(=O)N[C@@H](CO)C(=O)N[C@H](C(=O)N[C@@H](CC(N)=O)C(=O)N[C@H](C(=O)NCC(=O)N[C@@H](CCCNC(=N)N)C(=O)N[C@@H](CCC(=O)O)C(=O)N[C@H](C(=O)N[C@@H](Cc1ccc(O)cc1)C(N)=O)[C@@H](C)O)C(C)C)[C@@H](C)O
B4: N^ε1-[(4S)-4-carboxy-4-[[(4S)-4-carboxy-4-(19-carboxynonadecanoylamino)butanoyl]amino]butanoyl]-[Glu14,Arg17,Pro21,Pro27,Pro34,Phe37]-h-amylin (peptide)
peptide: K([γGlu-γGlu-C20 diacid])CNTATCATQRLAEFLRHSSPNFGAIPSSTNVGPNTF-NH2
modifications: disulfide 2-7; N-terminus assumed
SMILES: CC[C@H](C)[C@H](NC(=O)[C@H](C)NC(=O)CNC(=O)[C@H](Cc1ccccc1)NC(=O)[C@H](CC(N)=O)NC(=O)[C@@H]1CCCN1C(=O)[C@H](CO)NC(=O)[C@H](CO)NC(=O)[C@H](Cc1c[nH]cn1)NC(=O)[C@H](CCCNC(=N)N)NC(=O)[C@H](CC(C)C)NC(=O)[C@H](Cc1ccccc1)NC(=O)[C@H](CCC(=O)O)NC(=O)[C@H](C)NC(=O)[C@H](CC(C)C)NC(=O)[C@H](CCCNC(=N)N)NC(=O)[C@H](CCC(N)=O)NC(=O)[C@@H](NC(=O)[C@H](C)NC(=O)[C@@H]1CSSC[C@H](NC(=O)[C@@H](N)CCCCNC(=O)CC[C@H](NC(=O)CC[C@H](NC(=O)CCCCCCCCCCCCCCCCCCC(=O)O)C(=O)O)C(=O)O)C(=O)N[C@@H](CC(N)=O)C(=O)N[C@@H]([C@@H](C)O)C(=O)N[C@@H](C)C(=O)N[C@@H]([C@@H](C)O)C(=O)N1)[C@@H](C)O)C(=O)N1CCC[C@H]1C(=O)N[C@@H](CO)C(=O)N[C@@H](CO)C(=O)N[C@H](C(=O)N[C@@H](CC(N)=O)C(=O)N[C@H](C(=O)NCC(=O)N1CCC[C@H]1C(=O)N[C@@H](CC(N)=O)C(=O)N[C@H](C(=O)N[C@@H](Cc1ccccc1)C(N)=O)[C@@H](C)O)C(C)C)[C@@H](C)O
B5: N^ε1-[(4S)-4-carboxy-4-[[(4S)-4-carboxy-4-(19-carboxynonadecanoylamino)butanoyl]amino]butanoyl]-[Glu14,Arg17,Pro21,Pro27,His34,Glu35]-h-amylin (peptide)
peptide: K([γGlu-γGlu-C20 diacid])CNTATCATQRLAEFLRHSSPNFGAIPSSTNVGHETY-NH2
modifications: disulfide 2-7; N-terminus assumed
SMILES: CC[C@H](C)[C@H](NC(=O)[C@H](C)NC(=O)CNC(=O)[C@H](Cc1ccccc1)NC(=O)[C@H](CC(N)=O)NC(=O)[C@@H]1CCCN1C(=O)[C@H](CO)NC(=O)[C@H](CO)NC(=O)[C@H](Cc1c[nH]cn1)NC(=O)[C@H](CCCNC(=N)N)NC(=O)[C@H](CC(C)C)NC(=O)[C@H](Cc1ccccc1)NC(=O)[C@H](CCC(=O)O)NC(=O)[C@H](C)NC(=O)[C@H](CC(C)C)NC(=O)[C@H](CCCNC(=N)N)NC(=O)[C@H](CCC(N)=O)NC(=O)[C@@H](NC(=O)[C@H](C)NC(=O)[C@@H]1CSSC[C@H](NC(=O)[C@@H](N)CCCCNC(=O)CC[C@H](NC(=O)CC[C@H](NC(=O)CCCCCCCCCCCCCCCCCCC(=O)O)C(=O)O)C(=O)O)C(=O)N[C@@H](CC(N)=O)C(=O)N[C@@H]([C@@H](C)O)C(=O)N[C@@H](C)C(=O)N[C@@H]([C@@H](C)O)C(=O)N1)[C@@H](C)O)C(=O)N1CCC[C@H]1C(=O)N[C@@H](CO)C(=O)N[C@@H](CO)C(=O)N[C@H](C(=O)N[C@@H](CC(N)=O)C(=O)N[C@H](C(=O)NCC(=O)N[C@@H](Cc1c[nH]cn1)C(=O)N[C@@H](CCC(=O)O)C(=O)N[C@H](C(=O)N[C@@H](Cc1ccc(O)cc1)C(N)=O)[C@@H](C)O)C(C)C)[C@@H](C)O

Target: T1, human calcitonin receptor
Assay: ratio of IC50 at hCTR over IC50 at hAmylin-R (SPA competition assays)
Procedure, shortened: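 IC₅₀ values were derived by one-site competition analysis of SPA counts. Cell membranes (35 ng/μL) with SPA beads were incubated with test compounds for 120 min at 25° C in Hepes buffer, pH 7.4, containing CaCl2, MgCl₂, OA and Tween20.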

Row | Binder | Ratio hCT/hAmylin binding
1 | K([γGlu-γGlu-C20 diacid])CNTATCATQRLADFLRHSSPNFGAIPSSTNVGPRTY-NH2 (disulfide 2-7, also called compound 130) | 280
2 | K([γGlu-γGlu-C20 diacid])CNTATCATQRLAEFLRHSSPNFGAILSSTPVGPETY-NH2 (disulfide 2-7 (inferred)) | 22.6
3 | K([γGlu-γGlu-C20 diacid])CNTATCATQRLADFLRHSSPNFGAIPSSTNVGPETY-NH2 (disulfide 2-7) | 49.8
4 | B1 | 53.6
5 | K([γGlu-γGlu-C20 diacid])CNTATCATQRLAEFLRHSSPNFGAIPSSTNVGPHTY-NH2 (disulfide 2-7 (inferred)) | 27.3
6 | B2 | 0.4
7 | B3 | 14.7
8 | B4 | 18
9 | B5 | 29.1

Target: T1, human calcitonin receptor
Assay: SPA competition against 125I-calcitonin, membranes of BHK cells with human calcitonin receptor (Assay VII)
Procedure, shortened: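 BHK hCTR membranes 35 ng/μL + SPA beads 0.05 mg/well; buffer 50 mM Hepes pH 7.4, 1 mM CaCl2, 5 mM MgCl₂, 0.1% OA, 0.02% Tween20. 120 min, 25° C., shaking. Scintillation count; IC50 by one-site binding competition.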

Row | Binder | IC50
10 | K([γGlu-γGlu-C20 diacid])CNTATCATQRLADFLRHSSPNFGAIPSSTNVGPRTY-NH2 (disulfide 2-7, also called compound 130) | 127 nM
11 | K([γGlu-γGlu-C20 diacid])CNTATCATQRLAEFLRHSSPNFGAILSSTPVGPETY-NH2 (disulfide 2-7 (inferred)) | 1.56 nM
12 | K([γGlu-γGlu-C20 diacid])CNTATCATQRLADFLRHSSPNFGAIPSSTNVGPETY-NH2 (disulfide 2-7) | 8.56 nM
13 | B1 | 17.5 nM
14 | K([γGlu-γGlu-C20 diacid])CNTATCATQRLAEFLRHSSPNFGAIPSSTNVGPHTY-NH2 (disulfide 2-7 (inferred)) | 10.3 nM
15 | B2 | 0.226 nM
16 | B3 | 14.1 nM
17 | B4 | 2.73 nM
18 | B5 | 15.2 nM
